assay: soluble on expression in E. coli; label from the status in PepcDB or PDB records

Sequence	soluble on expression in E. coli
MGSDKIHHHHHHMINQVYQLVAPRQFDVTYNNVDIYGNHVIVRPLYLSICAADQRYYTGRRDENVLRKKLPMSLVHEAVGEVVFDSKGVFEKGTKVVMVPNTPTEQHHIIAENYLASSYFRSSGYDGFMQDYVVMAHDRIVPLPNDIDLSTISYTELVSVSYHAIQRFERKSIPLKNSFGIWGDGNLGYITAILLRKLYPEAKIYVFGKTDYKLSHFSFVDDIFTVNQIPDDLKIDHAFECVGGKGSQVALQQIVEHISPEGSIALLGVSELPVEVNTRLVLEKGLTLIGSSRSGSKDFEQVVDLYRKYPDIVEKLALLKGHEINVCTMQDIVQAFEMDLSTSWGKTVLKWTI	not soluble
MAHHHHHHMDATELKNKGNEEFSAGRYVEAVNYFSKAIQLDEQNSVLYSNRSACFAAMQKYKDALDDADKCISIKPNWAKGYVRRGAALHGMRRYDDAIAAYEKGLKVDPSNSGCAQGVKDVQVAKAREARDPIARVFTPEAFRKIQENPKLSLLMLQPDYVKMVDTVIRDPSQGRLYMEDQRFALTLMYLSGMKIPNDGDGEEEERPSAKAAETAKPKEEKPLTDNEKEALALKEEGNKLYLSKKFEEALTKYQEAQVKDPNNTLYILNVSAVYFEQGDYDKCIAECEHGIEHGRENHCDYTIIAKLMTRNALCLQRQRKYEAAIDLYKRALVEWRNPDTLKKLTECEKEHQKAVEEAYIDPEIAKQKKDEGNQYFKEDKFPEAVAAYTEAIKRNPAEHTSYSNRAAAYIKLGAFNDALKDAEKCIELKPDFVKGYARKGHAYFWTKQYNRALQAYDEGLKVDPSNADCKDGRYRTIMKIQEMASGQSADGDEAARRAMDDPEIAAIMQDSYMQLVLKEMQNDPTRIQEYMKDSGISSKINKLISAGIIRFGQ	soluble
MRKRLITVKNLFEYVQENELVIQADMIITPGAKDIIRDKGIGVKYEKCCCESESKMKNEIKKDCQNFEKKVIDIITKEFKITDSETVQKILSKLKELL	not soluble
MKVEELAESISSYAVGILKEEGIEELFPPQAEAVEKVFSGKNLLLAMPTAAGKTLLAEMAMVREAIKGGKSLYVVPLRALAGEKYESFKKWEKIGLRIGISTGDYESRDEHLGDCDIIVTTSEKADSLIRNRASWIKAVSCLVVDEIHLLDSEKRGATLEILVTKMRRMNKALRVIGLSATAPNVTEIAEWLDADYYVSDWRPVPLVEGVLCEGTLELFDGAFSTSRRVKFEELVEECVAENGGVLVFESTRRGAEKTAVKLSAITAKYVENEGLEKAILEENEGEMSRKLAECVRKGAAFHHAGLLNGQRRVVEDAFRRGNIKVVVATPTLAAGVNLPARRVIVRSLYRFDGYSKRIKVSEYKQMAGRAGRPGMDERGEAIIIVGKRDREIAVKRYIFGEPERITSKLGVETHLRFHSLSIICDGYAKTLEELEDFFADTFFFKQNEISLSYELERVVRQLENWGMVVEAAHLAPTKLGSLVSRLYIDPLTGFIFHDVLSRMELSDIGALHLICRTPDMERLTVRKTDSWVEEEAFRLRKELSYYPSDFSVEYDWFLSEVKTALCLKDWIEEKDEDEICAKYGIAPGDLRRIVETAEWLSNAMNRIAEEVGNTSVSGLTERIKHGVKEELLELVRIRHIGRVRARKLYNAGIRNAEDIVRHREKVASLIGRGIAERVVEGISVKSLNPESAAALEHHHHHH	soluble
MGSDKIHHHHHHYMDTIPTENVSFTTVSTSLDNLYLALNGIHRKMVSQDLGNQGLGGEPGFIIGREALADDLTWDTQTWHQGFLNWSYPTNATSSYNSGEWETYYKFILNANNILKALNDNFSDESKLTDSEKALANHIKGECLAIRAWSHFNLVQYYAKPYRNGQDNSQPGVPYRTSPEIEPMARNTVEEVYTKIHGDLDEALNLLADYEPNDKNHYSLASVYGLKARALLTQQKYADAATAAVNSINEAEKDGCKIMSQSELMNGFANITSATKEAMYAAMTQNDQTVYFYSFYAYMSWNFNSSSIRTGIKCISQSTYDLMSPTDLRRQWWDPTGKAEVPATSYNQRVYQNRKFTARSTADAVGDFAFMRISEMYLTAAEAFARSNQDAKAKEYLQALLKERDPEYKDLGNTGAKLADEIMTHRRIELWGEGFRWFDLKRLGLPLDRTGSNFDATFCGFLHKDPNADGWIFEIPKKETDFNDLIEKNY	not soluble
MTKTQLVCDKNQLNWGLKAAKAIAGKSPYDVVQMRVSPDRDYLYICAVNAEATLVAKVELLVANISSEEDEIITIDKAKIPALILATAETGKKSEDSRPMAGICIRGKEVDFTDENGAGRGVDLTTIHRNDSAEIGDPVRTIIRVKQ	not soluble
SLGEVPSPQELIEVADAAPNAASGVLKLYRAYREQAQRLSDLSDLLAREGHETALSSTRLPIDEVRHVFENRPAYFHAIDAAAEELHKQLSTGDDLASGLRAWLQKNHGIVVRTLPVHAMPNLRRRYDRHSMRLFLSERLSQPDQLREMAMETCLLALREEIGTELEALGLKGEEARRIARFELARYAAHALMMPYGAFLAAAQRAKYDLDVLRSRFNVSFEQAANRLVSLQRPTTAAIPFFLMEIDNAGNRFRLAGAGGFPRARFGGLCPRLNIHAAFAQPGQVLVESVEMPDGDAFLTVSRTLEGPQAGFGERVRRTAVLLGCDLGQAGETVYGPAASGAAPVAIGPSCRLCERQGCLSRAEAPLTRPLGLDEMVTGLSVFDFQ	soluble
MSLEVKVGLAPMAGYTDSAFRTLAFEWGADFAFSEMVSAKGFLMNSQKTEELLPQPHERNVAVQIFGSEPNELSEAARILSEKYKWIDLNAGCPVRKVVKEGAGGALLKDLRHFRYIVRELRKSVSGKFSVKTRLGWEKNEVEEIYRILVEEGVDEVFIHTRTVVQSFTGRAEWKALSVLEKRIPTFVSGDIFTPEDAKRALEESGCDGLLVARGAIGRPWIFKQIKDFLRSGKYSEPSREEILRTFERHLELLIKTKGERKAVVEMRKFLAGYTKDLKGARRFREKVMKIEEVQILKEMFYNFIKEVEGGSHHHHHH	soluble
DTHFPICIFCCGCCHRSKCGMCCKT	soluble
MVFYFKARPDAGDYTIFMGLDKFENEELIKYGFPEDVWFHVDKMSSAHVYLRLHRGQSFDDISEGVLEDCAQLVKANSIQGNKVNNVDVVYTPWSNLKKTASMDVGQVGFHNSKMVRTIRVEKRVNEIVNRLNKTKVERTPDLRAEREAVNAAERAERKQHLREKKKREEIDRLEKERQSEMRSYKGLMVTDKMTSNKDIASSNKSLQELEDDFM	soluble
YIDILNQARDYVYIMTPYLILDSEMEHALQFAAERGVDVKIIMPGIPDKKVPFALAKRYFPALLDAGVKIYEFTPGFVHAKVFIADDIKAVVGTINLDYRSLYHHFECATYMYQTDCLVDIKADFKETLKQSRRVTRSTLQKEKISTKLIGLVVKLVAPLL	not soluble
DPSEPGHADHLTAVMADAQPAIVLTNNASAAAVRRFFSALPGAQRPRIISIDSLPDTLAQSYQIPTPSMAAAAINPVDLPAFLQYTSGSTRTPAGVVLTNRSIVTNVLQIFAAAQLKTPLRLVSWLPL	not soluble
KSVVIGKDALIGWHGGANQSDEMWDQSVPSQYEKQFYRYLTRLRIKEAEFYNKVGVDPNITVYGHTRTNTCQRSTLANGWYYTESDMRHMGIKNLTVQGELLNTLNYNNSEINSCLMPQIFN	not soluble
MYLACLAKFSQNVELRKMLFRTQDMYLVEASGNDAIWGNGIWKEDKRSDDVANWHGTNYLGEILDRIRGELIGKPEFAAEKEAVQLESLEQRIQMLMA	not soluble
MMDDILKQIKAGEVSGVQFKERILDKYDIACELVAFSNSHGGKLVVGIKDKTGETNALSYSEVQETTNLLSDIASENVVPSILIKIDTVEVEDGNLVVATVKEGLNKPYHDNKGIVWVKNGADKRKVFDNAELAEMMTDCGSFAPDEAGVRDATVNDLDATTIKQFLGNRFERVLDKKGLTGDAFNEASLDMICSAIAKGHDCEKILRNLRFIRPDGTLTVAAMLLFGKYTQRWMPMMTAKCICFAGNSVGSKVFRDKVNDADMEGNLLHQYDTIMDFFTRNLHNVQVGDEFNSMGKLEIPYTSLVEFTVNSLVHRSLNMKAPVRIFIFDNRVEIHSPGALPNGLTIDDIKAGTSMPRNTFLFNNAIYLLPYTGVGSGITRALDEDINVTFMNNDKAQEFVITVWRGESNQVEDLDTGLRHSDTDLDTGLRHSDTDLDTKRVTLTNKEKDIVNFCSVPRTTKEILDRIGVSMHSKNRERYITSLVAAGYLQMTNPDNPTASNQKYKKVNKRLEHHHHHH	soluble
MRPPISSGRIGDGGLDSCPEKKEEEKDSTSRLCSDLSDLRIERIGSTPAFQWISVYTKRPPMKQRFHHNIANSRLSHHAEKGKRDGLFISCVASEANLWALVMDAGTGFTSQVYKFSSTFLPKDWIMKQWEKNYYISSIAGANNGSSLVVMSKGTRYIQQSYKTGDSIPLKWMDKKWKEGFHVTSMTTGGSRWGVVMSRNSGFSEQVMEVDFLNPSEDINRRLESGYMITSMAATADQAALILSIPRRKITDEIQETLRTSSFPSSYVKDKWGKNMFITSICYGRTV	soluble
MAHHHHHHMQSSISQEKLQLMQKNFNLVDLNKDGKIAAEEFKTLLRLLGQTKTEKEMDEMVDKHFEDAPIGEEQQQDAAEAADKGGANEGTPSTAKQLGGQKNTAKTAPNHDRIKNLIAKLNNSKDEDKKKNSPNGQINRTGDVYAKNELINKKKKHINFETFLRIFLETYEEPLSVDELITSFEFFDKEKSGYLDEEKVRFILKNSEERLADEDMKLFLNSLNLRDKDKIDYVMLAKRLKNVA	not soluble
KTYGPLKNLPHLEKEQLSQSLWRIADELGPIFRFDFPGVSSVFVSGHNLVAEVCDEKRFDKNLGKGLQKVREFGGDGLFTSWTHEPNWQKAHRILLPSFSQKAMKGYHSMMLDIATQLIQKWSRLNPNEEIDVADDMTRLTLDTIGLCGFNYRFNSFYRDSQHPFITSMLRALKEAMNQSKRLGLQDKMMVKTKLQFQKDIEVMNSLVDRMIAERKANPDENIKDLLSLMLYAKDPVTGETLDDENIRYQIITFLIAGHETTSGLLSFAIYCLLTHPEKLKKAQEEADRVLTDDTPEYKQIQQLKYIRMVLNETLRLYPTAPAFSLYAKEDTVLGGEYPISKGQPVTVLIPKLHRDQNAWGPDAEDFRPERFEDPSSIPHHAYKPFGNGQRACIGMQFALQEATMVLGLVLKHFELINHTGYELKIKEALTIKPDDFKITVKPRKTAAINVQRKEQADIKAETKPKETKPKHGTPLLVLFGSNLGTAEGIAGELAAQGRQMGFTAETAPLDDYIGKLPEEGAVVIVTASYNGAPPDNAAGFVEWLKELEEGQLKGVSYAVFGCGNRSWASTYQRIPRLIDDMMKAKGASRLTAIGEGDAADDFESHRESWENRFWKETMDAFDINEIAQKEDRPSLSITFLSEATETPVAKAYGAFEGIVLENRELQTAASTRSTRHIELEIPAGKTYKEGDHIGILPKNSRELVQRVLSRFGLQSNHVIKVSGSAHMAHLPMDRPIKVVDLLSSYVELQEPASRLQLRELASYTVCPPHQKELEQLVSDDGIYKEQVLAKRLTMLDFLEDYPACEMPFERFLALLPSLKPRYYSISSSPKVHANIVSMTVGVVKASAWSGRGEYRGVASNYLAELNTGDAAACFIRTPQSGFQMPNDPETPMIMVGPGTGIAPFRGFIQARSVLKKEGSTLGEALLYFGCRRPDHDDLYREELDQAEQDGLVTIRRCYSRVENEPKGYVQHLLKQDTQKLMTLIEKGAHIYVCGDGSQMAPDVERTLRLAYEAEKAASQEESAVWLQKLQDQRRYVKDVW	not soluble

Reference: the DeepSol protein solubility set
